Test results reported in the supplement of paper PMC9170038.

Tested on: MS2 coat protein
Assay: apparent KD of MS2 coat protein; higher = weaker reporter binding
Settings: Eterna round: R107
Method in brief: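 Apparent KD was obtained for each design as the median of normalised binding-curve fits over its clusters. RNA switches transcribed on-chip from Illumina sequencing clusters were titrated with SNAP-549-labelled MS2 coat protein (twofold steps, 0.7 or 1.5 nM to 3 µM) in 100 mM Tris-HCl pH 7.5, 80 mM KCl, 4 mM MgCl2, without or with constant ligand.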

[1] = input ligand: theophylline 20 uM
[2] = input ligand: theophylline 2 mM
[3] = input ligand: tryptophan 2.4 mM

Sequence	apparent KD of MS2 coat protein (input ligand: arginine 13.2 mM)	apparent KD of MS2 coat protein (input ligand: none)	apparent KD of MS2 coat protein [1]	apparent KD of MS2 coat protein [2]	apparent KD of MS2 coat protein [3]
CAGCACAUGAGGAUCACCCAUGUGAGGGAUACCAGCUCAGGCGUGGGCCCUUGGCAGCUCUGUGGCUGACGAAAGUCAGCCUCUG [#18 SameState-TheophyllineA]	0.0134 µM	0.0146 µM	0.0177 µM	0.0154 µM	0.0134 µM
ACGAACGCACCUGAGGAACACCCAGGUGAUACCAGCCUGGAAACAGGCCCUUGGCAGCACCUAAAAUAAAGGUAACGUUCGAAUA [TheoAX8 #MicroSwitchBubble #AlternativeMS2]	0.171 µM	0.126 µM	0.231 µM	0.18 µM	0.0989 µM
CACAGUGCGAAUUUGAAUUCGCACGAUCCUCGAGGACCGGUACGGCCGCCACUCGCGCGGGUCGUACAUGAGGAUCACCCAUGUC [Quermavebe]	0.025 µM		0.233 µM	1.19 µM	
AAGAACAUGAGGAUCACCCAUGUGAUCGUUCGAGGACCGGUACGGCCGCCACUCGGACCUGUGUCCAGGCACGGGCCGACGCGAC [theeternabot_sameState_MS2_Trp_A_21]	0.0748 µM		0.118 µM	0.106 µM	
AAUAAUAAGGCGGCCGCCACUAAACAUGAGGAUCACCCAUGUCUCGCGGGCUUGCGUUGGGAAAGUAGGACCGGGCCAAUAAUAA [Exclusion - Tryptophan B (Freestyle 8)]	0.016 µM	0.0157 µM	0.0206 µM	0.0147 µM	0.0144 µM
GCCUAGCAGCGAAGGAGCGAGGUAAAUAAAUAAAUAAAUAACAAGAGGAUCACCCUUGUUCCUCAGGUAGGUCGCGCUGCUAGGC [SSAB Alternative Aptamer #1 NP+V+V2]	0.016 µM	0.0175 µM	0.0227 µM	0.0189 µM	0.0179 µM
UGUAUUACGAAAGUAGUACAUCGUGUUCGACGAGGACCGGUACGGCCGCCACUCGGACAUGAGGAUCACCCAUGUAGCGAAAGCU [Tryptophan A 25]	0.0938 µM		0.354 µM	0.491 µM	
AACACACCAAAUGAUACCAGCUACAACAUGAUACAAAACCACAUGAGGAUCACCCAUGUAAGCCCUUGGCAGCAUACUACUGUAA [theeternabot_exclusion_MS2_Theo_B_40]	0.0169 µM		0.0242 µM		0.0187 µM
UUAGAUAUGACAGAUACCAGCGUGUUGUAGAACAUGAGGAUCACCCAUGUAGUGAUCGAGCGCCCUUGGCAGCUGGUGUGUUUGG [7.S]	0.163 µM		0.303 µM		0.319 µM
ACGUCCGGAUUGAUCGUGGGCAUGGUCGAUACCAGUAUUUUAAUCUACCCUUGGCAGCGACAUGAGGAUCACCCAUGUGCGAUGA [XTheo A #19]	0.0161 µM		0.0215 µM		0.0162 µM
ACAUGAGGAUCACCCAUGUCAGGGCACGAUACCAGCUGAUCCGGUGGCCCUUGGCAGCGUGACGUGUGGUCAUGAGGAUCACCCG [wsmullin]	0.283 µM	0.52 µM	0.642 µM	0.638 µM	0.464 µM
GCUGCCAUACGAAGGAGCGCUGUUGCAAUGAGGCGAACAUGAGGAUCACCCAUGUGGCAGCAGCAGGUAGGUCGCGUAUGGCAGC [EAB #12]	0.0334 µM	0.0425 µM	0.0536 µM	0.0527 µM	0.0442 µM
UGUAUGUGAUCUGAUACCAGUCCAACUGGUAAAAGAUGAGGAUCACCCAUCUAAAAUUGGGACCCUUGGCAGCAGAUCGCAUACU	0.0917 µM	0.264 µM	0.122 µM	0.0137 µM	0.264 µM
AUCCAUAGCCGAAGGAGCGCAGUAGGAUGACAUGAGGAUCACCCAUGUGUGUGAUGUGGAUUGCAGGUAGGUCGCGGAGUGGGUU [Exclusion - Arginine B (Freestyle 7)]	0.101 µM	0.0652 µM	0.124 µM	0.134 µM	0.0797 µM
ACAUGAGGAUCACCCAUGUUCCUCGCCGAUACCAGUGAAGAAGAACGCCCUUGGCAGCGGAAAGAGUAUUUUGGAGAUGAGGUAC [6.X]	0.0725 µM		0.134 µM		0.124 µM
GAUGAACAUACUGAUACCAGUGUACUGACAUGAGGAUCACCCAUGUUGGGUUUUGUUGUACACCCUUGGCAGCAGAAUGUUUAUC [AstrosExyTheB#7]	0.0462 µM		0.0665 µM		0.0554 µM
UUAUAUAUGCGAAGGAGCGGGAAAUAUAUAUAUAUAAUCCUAACAUGAGGAUCACCCAUGUCCCAGGUAGGUCGCGCAUAUAUAG [12.C]	0.038 µM	0.079 µM	0.117 µM	0.0766 µM	0.0534 µM
UUUUUUAACUGAAGGAGCGUCACAUGAGGAUCACCCAUGUAUUAGAUGAGAAUGAUCUUGUGGCAGGUAGGUCGCAGAGGAAGGG [#30 Exclusion - Arginine B]	0.521 µM	0.327 µM	0.167 µM	0.271 µM	0.37 µM
AACAACAAGGGAAGGAGCGCGAAUAAUAAACAUGAGGAUCACCCAUGUAUCAUGGGCUUAACGCAGGUAGGUCGCCCACAAACAA [Exclusion Arginine B GF1]	0.034 µM	0.0379 µM	0.0472 µM	0.0494 µM	0.0406 µM

Sequence	apparent KD of MS2 coat protein (input ligand: arginine 13.2 mM)	apparent KD of MS2 coat protein (input ligand: none)	apparent KD of MS2 coat protein [1]	apparent KD of MS2 coat protein [2]	apparent KD of MS2 coat protein [3]
GCGACACUCACGGCCGCCACUGAUUAGCCCAGUAUGGAGCCCACACAUGAGGAUCACCCAUGUCACAGGACCGGGUGGGUCUAUU [theeternabot_sameState_MS2_Trp_B_23]	0.0228 µM		0.0421 µM	0.0255 µM	
CCCACAAGCACGGCCGCCACUAUAUUAAUUACUGUCCUAGAACAUGAGGAUCACCCAUGUUAAUGUAGGACCGGGUGCGGGCCCG [theeternabot_exclusion_MS2_Trp_B_7]	0.00921 µM		0.0115 µM	0.00946 µM	
AUCGUACCUGAUGAUACCAGCAUGUGAUCGUAACAUGAGGAUCACCCAUGUGAUCAGUGAUGCCCUUGGCAGCAUGAUCGGUACA [Same State - Theophylline B (Freestyle 15)]	0.0366 µM		0.0358 µM		0.0367 µM
GGAACAUGAGGAUCACCCAUGUAAUCACGACGAGGACCGGUACGGCCGCCACUCGUAUUCACGCAAGGUAGAGGAAUACGUAGGC [theeternabot_exclusion_MS2_Trp_A_2]	0.0154 µM		0.0176 µM	0.0143 µM	
GGAUAGGACACGGCCGCCACUGCGGCUAGAUACUAGCACAUUUCCUCACAUGAGGAUCACCCAUGUAGGACCGGGUGUCCUAUCG	0.0576 µM		0.122 µM	0.089 µM	
UGUAACAUGAGGAUCACCCAUGUGCACGAUACCAGCUUCGAAAGAGGCCCUUGGCAGCGUAUGCGUAAGCUGUAUAAUAUAUAUC [#28 SameState-TheophyllineA]	0.0111 µM		0.0144 µM		0.0106 µM
CAAAAUUACGGAAGGAGCGCGGGUAGGCGGGUUGGAUCACAUGAGGAUCACCCAUGUAAAUCGCAGGUAGGUCGCCGUAAACGCG [Eslagele]	0.0456 µM	0.0288 µM	0.0439 µM	0.0769 µM	0.036 µM
AAGACAUGAGGAUCACCCAUGUCGUCUACACGAGGACCGGUACGGCCGCCACUCGUUUGCCAAUGAGCGCAUGCGGCCUGGGUAU [Exclusion Tryp A GF3]	0.0132 µM		0.0179 µM	0.0163 µM	
ACAUUUAACUGAAGGAGCGUGAAUAACAUGAGGAUCACCCAUGUAACUUAGAUGCUUAUUUCACAGGUAGGUCGCAGACUAAUGA [JR_ExcArginiB_Sub010]	0.0104 µM	0.0103 µM	0.0137 µM	0.0103 µM	0.0109 µM
UGUAUGUGAUUUGAUACCAGACCAGCUGGUGUUAUAUGAGGAUCACCCAUAUAGGUUUGGGUCCCUUGGCAGCAAAUCGCAUACU [SS Theo B #24 Ms14]	0.0407 µM	0.0286 µM	0.0388 µM	0.0174 µM	0.0325 µM
ACACGGAAUGAUGGAUCACCUCGUUAAUAACGAGGACCGGUACGGCCGCCACUCGAAAACCGUGACCUGUACGAAAAGUGCAGGA [TrypAS 15 #SwitchBubble #HomemadeMS2 #StaticStrem #MS2Early]	0.0273 µM	0.0336 µM	0.314 µM	0.488 µM	0.0761 µM
UAAUAUCACAUAUUAUGGGUGUAAUGUGAUACCAGCUAGGAAACUAGCCCUUGGCAGCACAUGAGGAUCACCCAUGUAAGCUGUA [(T1)'-(M)'-(T1)-(T2)-(M1)-(M2)-(T2)'_Design4_2/19/17]	0.0291 µM		0.123 µM		0.0689 µM
UUAAUCAAUAUAGAAAACUAUAUUGCAGAAGGAGCGUGAUAAAACACAGGUAGGUCGCUGAAGGGAACAUGAGGAUCACCCAUGU [AstrosSSArgA#5]	0.0248 µM	0.0234 µM	0.0325 µM	0.0263 µM	0.0262 µM
GCAUCAUGAACGGCCGCCACUAAGGAAUGAGCGGCUCUUGCGAUACAUGAGGAUCACCCAUGUCUUAGGACCGGGUUCAUUGUCA [theeternabot_sameState_MS2_Trp_B_49]	0.069 µM		0.343 µM	0.322 µM	
ACAUACAUGAGGAUCACCCAUGUCCAUGUUCGAGGACCGGUACGGCCGCCACUCGCGCGACAGCAUGAGGAACUUGAGGAUCACA [Exclusion Tryptophan A]	0.0395 µM	0.0638 µM	0.104 µM	0.0822 µM	0.0488 µM
ACUAGAGGUGGAAGGAGCGGGAGACAUGAGGAUCACCCAUGUGAAGUUUCGAGAGGAUCAUCCCAGGUAGGUCGCCAUGUCGAAA [vvbvmullin]	0.0353 µM	0.0274 µM	0.0469 µM	0.0616 µM	0.0437 µM
GUACAUGAGGAUCACCCAUGUGGUAGGGAUACCAGCCAGAAGAAAGGCCCUUGGCAGCUUGUAUUUAGUGUGGGUUUGUUUGUUC [Exclusion - Theophylline A]	0.029 µM		0.0403 µM		0.0256 µM
GGUUGAUAUAUAUAUAUAUUGAUUACUGAAGGAGCGGGAAAUAACCCAGGUAGGUCGCAGAGAUCCACAUGAGGAUCACCCAUGU [!0.F]	0.0319 µM	0.0427 µM	0.0504 µM	0.0605 µM	0.0569 µM
UGUAUGGACUGAAGGAGCGGGUUGAUAUCAUGAGGAUCACCCAUGGAAAAGGCGAAAGCCGCCCAGGUAGGUCGCAGUCCAUACU	0.0251 µM		0.038 µM	0.0375 µM	0.026 µM
